From US20090280134A1

Assays:
[1] = molecular target: PSGL-1/mIgG2b fusion protein co-expressed in CHO-K1 cells with porcine α1,3GalT and core 2 β1,6 GlcNAc transferase (C2 GnTI) (human; mouse) (UniProt Q14242); assay: sandwich ELISA, fusion protein from CHO-K1 with α1,3GalT and C2 GnTI against fusion protein from CHO-K1 without α1,3GalT
[2] = molecular target: PSGL-1/mIgG2b fusion protein co-expressed with porcine α1,3 galactosyltransferase (α-Gal substituted) (human; mouse) (UniProt Q14242); assay: sandwich ELISA, fusion protein made in 293T cells with α1,3GalT against the same made without α1,3GalT
[3] = molecular target: PSGL-1/mIgG2b fusion protein co-expressed in CHO-K1 cells with porcine α1,3GalT and core 2 β1,6 GlcNAc transferase (C2 GnTI) (human; mouse) (UniProt Q14242); assay: sandwich ELISA, fusion protein from CHO-K1 with α1,3GalT and C2 GnTI against fusion protein from CHO-K1 with α1,3GalT alone
[4] = molecular target: PSGL-1/mIgG2b fusion protein co-expressed with porcine α1,3 galactosyltransferase (α-Gal substituted) (human; mouse) (UniProt Q14242); assay: sandwich ELISA, fusion protein made in COS cells with α1,3GalT against the same made in COS without α1,3GalT
[5] = molecular target: PSGL-1/mIgG2b fusion protein co-expressed with porcine α1,3 galactosyltransferase (α-Gal substituted) (human; mouse) (UniProt Q14242); assay: sandwich ELISA, fusion protein made in CHO cells with α1,3GalT against the same made without α1,3GalT

- fold increase in α-Gal epitope density (relative O.D., GSA-reactivity/anti-mouse IgG reactivity) [1]: 13 fold
- fold increase in relative O.D. (GSA-reactivity/anti-mouse IgG reactivity) [2]: 3.1 fold
- fold increase in α-Gal epitope density (relative O.D., GSA-reactivity/anti-mouse IgG reactivity) [3]: 7.4 fold
- fold increase in relative O.D. (GSA-reactivity/anti-mouse IgG reactivity) [4]: 5.3 fold
- fold increase in relative O.D. (GSA-reactivity/anti-mouse IgG reactivity) [5]: 1.8 fold
Substance: peroxidase-conjugated Griffonia (Bandeiraea) simplicifolia I isolectin B4 (cat.no. L-5391; Sigma)
